According to publication PMC8028314, “Sae2 and Rif2 regulate MRX endonuclease activity at DNA double-strand breaks in opposite manners” (Cell Reports, 2021):

Target: T1, Mre11-Rad50 complex (S. cerevisiae, UniProt P32829 1-692; P12753 1-1312)
T1 construct: Mre11, S. cerevisiae; Rad50, S. cerevisiae; untagged; they were not measured here; also called wild-type MR; source: Sf9 cells, purified (NiNTA, HiTrap SP HP, HiTrap Q HP); copies: 2 + 2
Assay: pull-down; MBP-Rif2-his from Sf9 lysate bound to amylose resin, washed with 1 M then 0.1 M NaCl buffer (50 mM Tris-HCl pH 7.5, 0.2% NP40, 2 mM EDTA); recombinant MR variants (1 ug) added, 1 h at 4°C; washed with 0.1 M NaCl buffer; eluted with 20 mM maltose and cleaved with PreScission protease; Ponceau (Rif2) and western blots (anti-Rad50, anti-His)
Conditions: both partners purified

T1 sequence (P32829 whole entry, chain 1 of 2): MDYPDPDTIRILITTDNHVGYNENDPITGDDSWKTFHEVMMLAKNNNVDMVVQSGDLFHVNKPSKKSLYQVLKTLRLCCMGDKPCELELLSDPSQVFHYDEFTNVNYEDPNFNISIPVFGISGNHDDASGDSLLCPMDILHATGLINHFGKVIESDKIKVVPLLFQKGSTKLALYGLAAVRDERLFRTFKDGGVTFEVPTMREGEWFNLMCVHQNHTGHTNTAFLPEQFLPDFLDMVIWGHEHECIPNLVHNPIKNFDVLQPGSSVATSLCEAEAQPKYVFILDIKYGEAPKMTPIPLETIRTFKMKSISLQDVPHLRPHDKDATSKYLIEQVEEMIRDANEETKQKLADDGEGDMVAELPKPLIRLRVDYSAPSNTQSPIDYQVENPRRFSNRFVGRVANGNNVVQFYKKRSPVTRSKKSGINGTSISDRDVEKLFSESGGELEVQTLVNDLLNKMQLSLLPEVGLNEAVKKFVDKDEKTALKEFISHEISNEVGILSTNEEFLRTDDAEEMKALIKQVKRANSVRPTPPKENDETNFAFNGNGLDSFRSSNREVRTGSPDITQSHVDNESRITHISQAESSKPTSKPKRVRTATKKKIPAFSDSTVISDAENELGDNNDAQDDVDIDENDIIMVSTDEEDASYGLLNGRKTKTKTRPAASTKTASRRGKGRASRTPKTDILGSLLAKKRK
T1 sequence (P12753 whole entry, chain 2 of 2): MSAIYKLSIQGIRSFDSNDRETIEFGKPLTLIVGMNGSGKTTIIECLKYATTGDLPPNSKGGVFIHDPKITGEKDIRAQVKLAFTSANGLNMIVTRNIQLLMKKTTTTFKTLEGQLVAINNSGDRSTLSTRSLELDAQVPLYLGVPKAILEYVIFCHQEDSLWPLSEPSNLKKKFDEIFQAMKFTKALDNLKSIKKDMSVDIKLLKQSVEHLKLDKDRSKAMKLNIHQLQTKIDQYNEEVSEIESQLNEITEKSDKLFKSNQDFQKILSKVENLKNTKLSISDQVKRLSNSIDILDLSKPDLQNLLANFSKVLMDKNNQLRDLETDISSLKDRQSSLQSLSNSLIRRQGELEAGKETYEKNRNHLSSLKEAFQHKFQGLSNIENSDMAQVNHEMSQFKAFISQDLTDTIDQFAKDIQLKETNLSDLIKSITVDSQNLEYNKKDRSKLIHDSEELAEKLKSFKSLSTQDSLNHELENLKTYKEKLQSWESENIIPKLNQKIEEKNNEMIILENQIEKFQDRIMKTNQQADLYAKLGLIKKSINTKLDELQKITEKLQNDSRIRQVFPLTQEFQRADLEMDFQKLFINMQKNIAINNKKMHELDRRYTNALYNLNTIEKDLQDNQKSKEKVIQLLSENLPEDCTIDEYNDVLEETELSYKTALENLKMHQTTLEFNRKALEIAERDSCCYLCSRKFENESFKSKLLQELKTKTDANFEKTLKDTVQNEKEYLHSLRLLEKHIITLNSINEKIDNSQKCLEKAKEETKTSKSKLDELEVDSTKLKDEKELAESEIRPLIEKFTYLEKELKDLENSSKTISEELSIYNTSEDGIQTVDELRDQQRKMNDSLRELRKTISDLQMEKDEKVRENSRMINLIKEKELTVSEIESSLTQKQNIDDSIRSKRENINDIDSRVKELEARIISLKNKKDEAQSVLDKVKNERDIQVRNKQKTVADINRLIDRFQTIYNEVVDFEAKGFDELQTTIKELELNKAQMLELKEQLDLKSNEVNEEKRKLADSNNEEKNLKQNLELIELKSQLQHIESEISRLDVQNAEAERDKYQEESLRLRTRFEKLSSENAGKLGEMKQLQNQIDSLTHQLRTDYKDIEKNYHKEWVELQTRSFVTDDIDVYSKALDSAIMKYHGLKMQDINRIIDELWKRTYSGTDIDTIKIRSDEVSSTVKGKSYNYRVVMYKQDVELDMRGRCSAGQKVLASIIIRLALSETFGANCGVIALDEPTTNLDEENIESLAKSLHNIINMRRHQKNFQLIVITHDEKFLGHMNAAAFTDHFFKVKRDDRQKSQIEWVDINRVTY

- binding result: binds
B1: MBP-Rif2-his (natural protein, S. cerevisiae, UniProt Q06208 1-395, looked up)
chain: MEHVDSDFAPIRRSKKVVDSDKIVKAISDDLEQKNFTVLRKLNLVPIKKSVSSPKVCKPSPVKERVDHVFYQKFKSMALQELGTNYLSISYVPSLSKFLSKNLRSMKNCIVFFDKVEHIHQYAGIDRAVSETLSLVDINVVIIEMNDYLMKEGIQSSKSKECIESMGQASYSGQLDFEASEKPSNHTSDLMMMVMRKINNDESIDHIVYFKFEQLDKLSTSTIIEPSKLTEFINVLSVLEKSNNIAFKVLIYSNNVSISSLLSTSLKKKLNTKYTVFEMPILTCAQEQEYLKKMIKFTFDSGSKLLQSYNSLVTCQLNNKESNLAIFFEFLKVFPHPFTYLFNAYTEIIVQSRTFDELLDKIRNRLTIKNYPHSAYNFKKNQRLPLKLTRKVHDR
notes: Rif2, S. cerevisiae; recombinant full-length Rif2; The MBP tag was cleaved with PreScission protease only after elution from the resin; In the ATPase and nuclease assays purified Rif2-his with MBP cleaved off was used; The construct was a gift from A. Bianchi; also called recombinant Rif2; not shown: MBP, N-terminal, kept; 10xHis, C-terminal, kept
